Entries after “also recorded” stand apart in the source; their conditions may differ.
B1: SWAP6: FZD1,2,7-specific Wnt agonist; anti-FZD antibody with LRP6 VHH on light chain N-terminus; SEQ ID NO: 12 and 11 (protein)
chain 1: QVQLQQWGAGLLKPSETLSLTCAVSGASFSGHYWTWIRQPPGKGLEWIGEIDHTGSTNYEPSLRSRVTISVDTSKNQFSLNLKSVTAADTAVYYCARGGQGGYDWGHYHGLDVWGQGTTVTVSSASTKGPSVFPLAPSSKSTSGGTAALGCLVKDYFPEPVTVSWNSGALTSGVHTFPAVLQSSGLYSLSSVVTVPSSSLGTQTYICNVNHKPSNTKVDKKVEPKSCDKTHTCPPCPAPEAAGGPSVFLFPPKPKDTLMISRTPEVTCVVVDVSHEDPEVKFNWYVDGVEVHNAKTKPREEQYNSTYRVVSVLTVLHQDWLNGKEYKCKVSNKALGAPIEKTISKAKGQPREPQVYTLPPSREEMTKNQVSLTCLVKGFYPSDIAVEWESNGQPENNYKTTPPVLDSDGSFFLYSKLTVDKSRWQQGNVFSCSVMHEALHNHYTQKSLSLSPGK
chain 2: DVQLVESGGGLVQAGGSLRLACAGSGRIFAIYDIAWYRHPPGNQRELVAMIRPVVTEIDYADSVKGRFTISRNNAMKTVYLQMNNLKPEDTAVYYCNAKRPWGSRDEYWGQGTQVTVSSGSGSGSYVLTQPPSVSVSPGQTASITCSGDKVGHKYASWYQQKPGQSPVLVIYEDSQRPSGIPVRFSGSNSGNTATLTISGTQAMDEADYYCQAWDSSTDVVFGGGTKLTVLGQPKAAPSVTLFPPSSEELQANKATLVCLISDFYPGAVTVAWKADSSPVKAGVETTTPSKQSNNKYAASSYLSLTPEQWKSHRSYSCQVTHEGSTVEKTVAPTECS
B2: RSPO2: the Wnt signaling enhancer RSPO2 (R-spondin 2) (protein, UniProt Q6UXX9 22-243, looked up)
R-spondin-2: QGNRWRRSKRASYVSNPICKGCLSCSKDNGCSRCQQKLFFFLRREGMRQYGECLHSCPSGYYGHRAPDMNRCARCRIENCDSCFSKDFCTKCKVGFYLHRGRCFDECPDGFAPLEETMECVEGCEVGHWSEWGTCSRNNRTCGFKWGLETRTRQIVKKPVKDTILCPTIAESRRCKMTMRHCPGGKRTPKAKEKRNKKKKRKLIERAQEQHSVFLATDRANQ
B3: RSPO1: R-spondin 1, of a family of ligands that amplify Wnt signals (protein, UniProt Q2MKA7 21-263, looked up)
R-spondin-1: SRGIKGKRQRRISAEGSQACAKGCELCSEVNGCLKCSPKLFILLERNDIRQVGVCLPSCPPGYFDARNPDMNKCIKCKIEHCEACFSHNFCTKCKEGLYLHKGRCYPACPEGSSAANGTMECSSPAQCEMSEWSPWGPCSKKQQLCGFRRGSEERTRRVLHAPVGDHAACSDTKETRRCTVRRVPCPEGQKRRKGGQGRRENANRNLARKESKEAGAGSRRRKGQQQQQQQGTVGPLTSAGPA
B4: SWAP4: FZD4-mono-specific Wnt agonist; anti-FZD antibody with LRP6 binder; heavy/light chains SEQ ID NO: 9 and 10 (antibody)
heavy: EVQLVESGGGLVQPGGSLRLSCAASGFTFTSYYISWVRQAPGKGLEWVAEISPYSGSTYYADSVKGRFTISADTSKNTAYLQMNSLRAEDTAVYYCALRARPPIRLHPRGSVMDYWGQGTLVTVSSGGGGSGGGGSGGGGSEVQLVESGGGLVQPGGSLRLSCAASGFNISYYYIHWVRQAPGKGLEWLASIYPSSGYTYYADSVKGRFTISADTSKNTAYLQMNSLRAEDTAVYYCARSSFYWAMDYWGQGTLVTVSSASTKGPSVFPLAPSSKSTSGGTAALGCLVKDYFPEPVTVSWNSGALTSGVHTFPAVLQSSGLYSLSSVVTVPSSSLGTQTYICNVNHKPSNTKVDKKVEPKSCDKTHTCPPCPAPEAAGGPSVFLFPPKPKDTLMISRTPEVTCVVVDVSHEDPEVKFNWYVDGVEVHNAKTKPREEQYNSTYRVVSVLTVLHQDWLNGKEYKCKVSNKALGAPIEKTISKAKGQPREPQVYTLPPSREEMTKNQVSLTCLVKGFYPSDIAVEWESNGQPENNYKTTPPVLDSDGSFFLYSKLTVDKSRWQQGNVFSCSVMHEALHNHYTQKSLSLSPGK
light: DIQMTQSPSSLSASVGDRVTITCRASQDVSTAVAWYQQKPGKAPKLLIYSASFLYSGVPSRFSGSGSGTDFTLTISSLQPEDFATYYCQQSYTTPPTFGQGTKVEIKGGGGSGGGGSGGGGSDIQMTQSPSSLSASVGDRVTITCRASQSVSSAVAWYQQKPGKAPKLLIYSASSLYSGVPSRFSGSRSGTDFTLTISSLQPEDFATYYCQQSYAAYLFTFGQGTKVEIKRTVAAPSVFIFPPSDEQLKSGTASVVCLLNNFYPREAKVQWKVDNALQSGNSQESVTEQDSKDSTYSLSSTLTLSKADYEKHKVYACEVTHQGLSSPVTKSFNRGEC
B5: SWAP5: FZD-1,2,5,7,8-specific Wnt agonist; anti-FZD antibody with LRP6 VHH on light chain N-terminus; SEQ ID NO: 1 and 2 (protein)
chain 1: EVQLVQSGAEVKKPGASVKVSCKASGYTFTSYGISWVRQAPGQGLEWMGWISAYNGNTNYAQKLQGRVTMTTDTSTSTAYMELRSLRSDDTAVYYCASSKEKATYYYGMDVWGQGTTVTVSSASTKGPSVFPLAPSSKSTSGGTAALGCLVKDYFPEPVTVSWNSGALTSGVHTFPAVLQSSGLYSLSSVVTVPSSSLGTQTYICNVNHKPSNTKVDKKVEPKSCDKTHTCPPCPAPEAAGGPSVFLFPPKPKDTLMISRTPEVTCVVVDVSHEDPEVKFNWYVDGVEVHNAKTKPREEQYNSTYRVVSVLTVLHQDWLNGKEYKCKVSNKALGAPIEKTISKAKGQPREPQVYTLPPSREEMTKNQVSLTCLVKGFYPSDIAVEWESNGQPENNYKTTPPVLDSDGSFFLYSKLTVDKSRWQQGNVFSCSVMHEALHNHYTQKSLSLSPGK
chain 2: DVQLVESGGGLVQAGGSLRLACAGSGRIFAIYDIAWYRHPPGNQRELVAMIRPVVTEIDYADSVKGRFTISRNNAMKTVYLQMNNLKPEDTAVYYCNAKRPWGSRDEYWGQGTQVTVSSGSGSGQAVVLQEPSLSVSPGGTVTLTCGLSSGSVSTNYYPSWYQQTPGQAPRTLIYYTNTRSSDVPERFSGSIVGNKAALTITGAQPDDESVYFCLLYLGRGIWVFGGGTKLTVLGQPKAAPSVTLFPPSSEELQANKATLVCLISDFYPGAVTVAWKADSSPVKAGVETTTPSKQSNNKYAASSYLSLTPEQWKSHRSYSCQVTHEGSTVEKTVAPTECS

Legend:
[1] = test system: acute bleomycin mouse model; experiment: Bleomycin-induced acute lung injury (fibrosis) mouse model; type: in vivo; details: for fibrosis score (Modified Ashcroft) / percentage of lung area affected by fibrosis: agent alone, dosed four times between week 1 and week 3, vs anti-GFP; for fibrosis score (Modified Ashcroft): FIGS. 10-12; for percentage of lung area affected by fibrosis: FIGS. 10-11
Excerpt: The acute lung injury (single bleomycin treatment; FIG. 1) and chronic intermittent/low dose bleomycin mouse models (FIG. 2) were used to determine the therapeutic effects of Wnt antagonist and agonist (administered concurrently or sequentially or individually) in combination with or without anti-fibrotic drugs (e.g., pirfenidone and nintedanib) to assess effects on anti-fibrotic and improved respiratory functions (see, e.g., Degryse, A. et al. (2010) Am J Physiol Lung Cell Mol Physiol. 299:442-52). Improvement of fibrosis was observed upon treatment with a WNT agonist, SWAP5 (see, e.g., FIG. 7, FIG. 10). Specifically, bleomycin was administered intratracheally to the mice at day 0, and animals were treated twice weekly with an agonist approach—combination of SWAP5 (FZD1,2,5,7,8 multi-FZD-specific SWAP) and RSPO2 (combo)—for two weeks starting at day 7 until termination at day 21. […] Improvement of fibrosis was also observed upon treatment with a Wnt agonist or the Wnt signaling enhancer RSPO2 alone (FIG. 10).

human AT2 cell organoid [2] = experiment: Human AT2 cell organoid growth, CellTiter Glo assay; type: cell-based; details: for human AT2 culture growth: RSPO alone, Wnt signaling inhibitor C59 present
Procedure: For ex vivo studies, 3D organoid cultures (see, e.g., Zacharias, W. et al. (2018) Nature 555:251-257 and Barkauskas et al. (2017) Development 144:986-997) were constructed by combining primary human lung fibroblasts from healthy, pulmonary fibrosis, or COPD patients with alveolar epithelial cells (AT2 and AEP cells) from patients. Organoids were cultured in SAGM medium with growth factor free Matrigel. The Wnt antagonist and agonist were added in a sequential or concurrent manner to determine the effect on the fibroblast/myofibroblast proliferation, matrix production, alveolar epithelial cell proliferation and AT1/AT2 cell fate trans-differentiation. Alveolar organoids can also be cultured directly from human distal lung cells including purified AT2 cells (Kobayashi et al., (2020) supra).
In all of the AT2 cell organoid experiments, the Wnt signaling inhibitor, C59, was used to prevent endogenous secretion of Wnt ligands. […] AT2 cell organoid growth was assessed with the CellTiter Glo assay.

human AT2 cell organoid [3] = experiment: Human AT2 organoid size (diameter, microscopy); type: cell-based; details: in the absence of RSPO; C59 present; FIG. 6
[4] = combination of SWAP5 and RSPO2 (combo), twice weekly day 7 to day 21, FIG. 7

Molecule	fibrosis score (Modified Ashcroft) [1]	human AT2 culture growth (human AT2 cell organoid [2])	percentage of lung area affected by fibrosis [1]	other results
B1	caused a trend of reduction in the extent of fibrosis	–	–	–
B2	reduced the fibrosis score; also recorded: lower the severity of fibrosis	did not enhance human AT2 culture growth	reduced the fibrosis score and percentage of lung area affected; also recorded: reduce the area of the lung that is fibrotic	–
B3	–	did not enhance human AT2 culture growth	–	–
B4	–	–	–	human AT2 cell organoid growth as organoid size (diameter) (human AT2 cell organoid [3]): expand AT2 organoids; self-renewal and expansion of human AT2 cells (human AT2 cell organoid [2]; summary of organoid results): promotes the self-renewal and expansion of human AT2 cells
B5	reduced the fibrosis score; also recorded: lower the severity of fibrosis	–	reduced the fibrosis score and percentage of lung area affected; also recorded: reduce the area of the lung that is fibrotic	area (percent) of lung affected by fibrosis [1, 4]: reduction in the degree of fibrosis severity and the area of the lung affected by fibrosis; also recorded: reduce the area of the lung that is fibrotic; fibrosis severity (fibrosis score) [1, 4]: reduction in the degree of fibrosis severity; also recorded: lower the severity of fibrosis
